System: MS2 coat protein
Experiment: apparent KD of MS2 coat protein; designed switch direction (-1 OFF switch, 1 ON switch): 1; higher = weaker reporter binding
Summary of the method: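 For each design, the apparent KD is the median over clusters of curves fitted to normalised cluster fluorescence. Clusters held RNA switches with common flanks, transcribed on Illumina chips by stalled E. coli RNA polymerase. These were titrated with SNAP-549-labelled MS2 coat protein, doubling from 0.7 or 1.5 nM to 3 µM, without input, with 200 uM small-molecule ligand, or with an oligonucleotide input.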

[1] = input ligand: microRNA oligo, concentration not stated
[2] = Eterna round: R95, input ligand: FMN 200 uM
[3] = Eterna round: R95, input ligand: microRNA oligo, concentration not stated
[4] = Eterna round: R95, input ligand: none

Row | Sequence | apparent KD of MS2 coat protein (input ligand: FMN 200 uM) [nM] | apparent KD of MS2 coat protein [1] [nM] | apparent KD of MS2 coat protein (input ligand: none) [nM] | apparent KD of MS2 coat protein [2] [nM] | apparent KD of MS2 coat protein [3] [nM] | apparent KD of MS2 coat protein [4] [nM]
1 | AGGCUCAGACGAGGAUAUGAUCAUGGCGCUUCGGCGCAUACAUGAGGAUCACCCAUGUAAAGUGAUCAGAAGGUGUCUGAGCCA [SSNG2/7-B1] (Eterna round: R96, puzzle: Same State NG 2) | 13.9 | 11 | 16.1 |  |  | 
2 | AGGCUCAGAGCAGGAUAUAUGUGGUCACAUGAGGAUCACCCAUGUCUCGAGCUUCGGCUCGAGGCAUAGAAGGGCUCUGAGCCA [SSNG2/5-B1] (Eterna round: R96, puzzle: Same State NG 2) | 963 | 22.9 | 53.9 |  |  | 
3 | AGGCUCAGCAUGCAGGAUAUAGUCGCUGCGACAUGAGGAUCACCCAUGUGGUGUGAAAGAAAGCGCUAGAAGGGUAAAGUGAGUG [Beeran] (puzzle: Same State 2) |  |  |  | 244 | 467 | 750
4 | AGGGAGGAAGCUGAGGAUAUCGUAAGGAGGACAUGAGGAUCACCCAUGUGUAUAGAAUUGGAGGACGAGAAGGCAGAGGAGUGGG [JR_SS2_Sub052] (puzzle: Same State 2) |  |  |  | 25.5 | 29.3 | 25.6
5 | AGGUGGUGUGGAAAGGAUAUACGGUUGAGGACAUGAGGAUCACCCAUGUGGUAGAGGACGUGAGUGUAGAAGGUUCGGGAUUGGU [JR_SS@_Sub023] (puzzle: Same State 2) |  |  |  |  | 48.5 | 
6 | AGGUGGUGUGGAAAGGAUAUACUGUUGAGGACAUGAGGAUCACCCAUGUGGUAGAGGACGUAAGGGUAGAAGGUUCGGGAUUGGU [JR_SS@_Sub021] (puzzle: Same State 2) |  |  |  | 46.2 | 50.2 | 75.4
7 | AGUAUACAUGAGGAUCACCCAUGUCAGUAACUGACAGGAUAUGCGUUGCAUCACUGUAAUGCAGAAGGGUCUUGUA [Same State 1 - Mod of JMF's solution 1] (Eterna round: R96, puzzle: Same State 1) | 138 | 324 | 379 |  |  | 
8 | AGUAUACAUGAGGAUCACCCAUGUCAGUAACUGACAGGAUAUGCGUUGCAUCACUGUAAUGCAGAAGGGUCUUGUA [Same State 1 - Mod of JMF's solution 1] (puzzle: Same State 1) |  |  |  | 98.2 | 181 | 415
9 | AGUCCAGCAUGAGCUGGACAAAAGCAUGUACAUGAGGAUCACCCAUGUUCAUGUACAAGCUUUUUGCUCGUCUUAAA [Mat - hsa-mir-208a - Mod of JL - 45] (puzzle: Sensor for hsa-mir-208a) |  |  |  | 807 | 17.5 | 562
10 | AGUCCAGCCUAAGCUGGACAAAAGCAUGUACAUGAGGAUCACCCAUGUCAUGUACAAGCUUUUUGCUCGUCUUAAAA [Mat - hsa-mir-208a - Mod of JL - D4] (puzzle: Sensor for hsa-mir-208a) |  |  |  | 684 | 16.1 | 550
11 | AGUCCAGCCUAAGCUGGACAAAAGCAUGUACAUGAGGAUCACCCAUGUUCAUGUACAAGCUUUUUGCUCGUCUUAAU [Mat - hsa-mir-208a - Mod of JL - 60] (puzzle: Sensor for hsa-mir-208a) |  |  |  | 608 | 18.1 | 697
12 | AGUCCAGCCUGAGCUGGACAAAAGCAUGUACAUGAGGAUCACCCAUGUCAUGUACAAGUUUUUUGCUCGUUUUAAUA [Zipper 49 - 18] (puzzle: Sensor for hsa-mir-208a) |  |  |  | 48.9 | 12.2 | 52
13 | AGUCCAGCCUGAGCUGGACAAAAGCAUGUACAUGAGGAUCACCCAUGUCAUGUAUAAGCUUUUUGCUCGUCUUAAUA [Zipper 49 - 11] (puzzle: Sensor for hsa-mir-208a) |  |  |  | 24 | 11 | 21.3
14 | AGUCCAGCCUGAGCUGGACAAAAGCAUGUACAUGAGGAUCACCCAUGUCAUGUAUAAGCUUUUUGCUCGUUUUAAUA [Zipper 49 - 16] (puzzle: Sensor for hsa-mir-208a) |  |  |  | 19.9 | 10.7 | 19
15 | AGUCCAGCCUGAGCUGGACAAAAGCAUGUACAUGAGGAUCACCCAUGUUCAUGUACAAGCUUUUUGCUCGUCUUACA [salish99_208a_r3_076] (puzzle: Sensor for hsa-mir-208a) |  |  |  | 467 | 14.4 | 483
16 | AGUCCAGCCUGAGCUGGACAAAAGCAUGUACAUGAGGAUCACCCAUGUUCAUGUACAAGCUUUUUGCUCGUCUUGCC [salish99_208a_r3_107x] (Eterna round: R96, puzzle: Sensor for hsa-mir-208a) | 774 | 15.5 | 623 |  |  | 
17 | AGUCCAGCCUGAGCUGGACAAAAGCAUGUACAUGAGGAUCACCCAUGUUCAUGUACAAGCUUUUUGCUCGUCUUGCC [salish99_208a_r3_107x] (puzzle: Sensor for hsa-mir-208a) |  |  |  | 634 | 15.9 | 1130
18 | AGUCCAGCCUGAGCUGGACAAAUGCAAGUACAUGAGGAUCACCCAUGUUCAUGUACAAGCUUUUUGCUCGUCUUAAA [JL zipper 59] (Eterna round: R96, puzzle: Sensor for hsa-mir-208a) | 853 | 21.3 | 931 |  |  | 
19 | AGUCCAGCCUGAGCUGGACAAUAGCAUGUACAUGAGGAUCACCCAUGUCAUGUACAAGCUUUUUGCUCGUCUUAAAA [JL zipper 48] (Eterna round: R96, puzzle: Sensor for hsa-mir-208a) | 163 | 12.4 | 159 |  |  | 
20 | AGUCCAGCGAAAGCUGGACAAAAGCAUGUACAUGAGGAUCACCCAUGUUCAUGUACAAGCUUUUUGCUCGUUUUAAA [JL mod - D95 - 15] (puzzle: Sensor for hsa-mir-208a) |  |  |  | 590 | 13.5 | 643
21 | AUAAAACAUGAGGAUCACCCAUGUCAACAAAGUCGAGGAUAUGGGCAAAGAAAAUAAUAACCAGAAGGCGAAUAAU [salish99_ss1_r3_054] (puzzle: Same State 1) |  |  |  | 42.6 | 389 | 445
22 | AUAAAACAUGAGGAUCACCCAUGUCAACAAAGUCGAGGAUAUGGGCAAAUAAAAUAAGAACCAGAAGGCGAAUAAU [Teenbexe] (Eterna round: R96, puzzle: Same State 1) | 42.1 | 207 | 273 |  |  | 
23 | AUAAAACAUGAGGAUCACCCAUGUCAACAAAGUCGAGGAUAUGGGCAAAUAAAAUAAGAACCAGAAGGCGAAUAAU [salish99_SS1_r3_001] (puzzle: Same State 1) |  |  |  |  | 233 | 
24 | AUAAAACAUGAGGAUCACCCAUGUCAACAAAGUCGAGGAUAUGGGCAAAUAAAAUAAGAACCAGAAGGCGAAUUAU [salish99_ss1_r3_036] (Eterna round: R96, puzzle: Same State 1) | 36.8 | 185 | 247 |  |  | 
25 | AUAAAACAUGAGGAUCACCCAUGUCAACAAAGUCGAGGAUAUGGGCAAAUAAAAUAAGAACCAGAAGGCGAAUUAU [salish99_ss1_r3_036] (puzzle: Same State 1) |  |  |  | 31.6 | 423 | 1140
26 | AUAAAACAUGAGGAUCACCCAUGUCAACAAAGUCGAGGAUAUGGGCAAAUAAAAUAAGAACUAGAAGGCGAAUAAU [salish99_ss1_r3_031] (puzzle: Same State 1) |  |  |  | 374 | 1770 | 139
27 | AUAAAACAUGAGGAUCACCCAUGUCAACAAAGUCGAGGAUAUGGGCAAAUAAAAUAAUAACCAGAAGGCGAAUAAU [salish99_ss1_r3_018] (puzzle: Same State 1) |  |  |  | 63.9 | 232 | 546
28 | AUAAAACAUGAGGAUCACCCAUGUCAACAAUGUCGAGGAUAUGGGCAAAUAAAAUAAGAACCAGAAGGCGAAUAAU [salish99_ss1_r3_039] (puzzle: Same State 1) |  |  |  | 43.2 | 248 | 507
29 | AUAAAACAUGAGGAUCACCCAUGUCUACAAAGUCGAGGAUAUGGGCAAAUAAUAUAAGAACCAGAAGGCGAAUAAU [SS1 Teenbexe 1] (puzzle: Same State 1) |  |  |  | 54.2 | 565 | 14400
